According to US7074904:

Legend:
[1] = biological target: full-length murine I-A^d/OVA 323-339 MHC class II fusion complex (pJRS165.1) expressed on NSO cells (mouse; chicken) (UniProt P04228); experiment: flow cytometry, FITC-conjugated isotype control antibody 1:100 on clone NSO/IA^d/OVA.A4
[2] = biological target: full-length murine I-A^d/OVA 323-339 MHC class II fusion complex (pJRS165.1) expressed on NSO cells (mouse; chicken) (UniProt P04228); experiment: flow cytometry, FITC-conjugated isotype control antibody 1:100 on clone NSO/IA^d/OVA.B5
[3] = biological target: full-length murine I-A^d/OVA 323-339 MHC class II fusion complex (pJRS165.1) expressed on NSO cells (mouse; chicken) (UniProt P04228); experiment: flow cytometry, FITC-conjugated isotype control antibody 1:100 on clone NSO/IA^d/OVA.B4
[4] = biological target: full-length murine I-A^d/OVA 323-339 MHC class II fusion complex (pJRS165.1) expressed on NSO cells (mouse; chicken) (UniProt P04228); experiment: flow cytometry, FITC-conjugated isotype control antibody 1:100 on clone NSO/IA^d/OVA.B2
[5] = biological target: I-A^d on NSO parental cells (untransfected negative control, H-2^d background) (mouse) (UniProt P04228); experiment: flow cytometry, FITC-conjugated isotype control antibody 1:100 on untransfected NSO cells (negative control)
[6] = biological target: murine class II MHC molecule I-A^d on A20.1-11 cells (mouse) (UniProt P04228); experiment: flow cytometry, FITC-conjugated isotype control antibody 1:100 on A20.1-11 cells (positive control)

- peak channel fluorescence [1]: 34 channel
- peak channel fluorescence [2]: 10 channel
- peak channel fluorescence [3]: 11 channel
- peak channel fluorescence [4]: 14 channel
- peak channel fluorescence [5]: 5 channel
- peak channel fluorescence [6]: 5 channel
Substance: FITC-conjugated anti-IA^k antibody (Pharmingen), isotype matched irrelevant antibody
